Measured values from patent US20140051834A1, “Incretin Receptor Ligand Polypeptide Fc-Region Fusion Polypeptides And Conjugates With Altered Fc-Effector Function” (Hoffman-La Roche, Inc., priority 2012, published 2014).

How the values were obtained:
FcγRI (human) = FcγRI (human) (UniProt P12314); experiment: SPR (BIAcore T100, 25 °C); FcγRI captured by pentaHis antibody, antibody as analyte
FcγRIIIA-V158 (human) = FcγRIIIA-V158 (human) (UniProt P08637); experiment: SPR (BIAcore T100, 25 °C); antibody immobilised, receptor as analyte, steady state fit
FcγRIIA-R131 (human) = FcγRIIA-R131 (human) (UniProt P12318); experiment: as above
FcγRIIA-R131 (human), sequence (P12318 36-218 H167R limits assumed): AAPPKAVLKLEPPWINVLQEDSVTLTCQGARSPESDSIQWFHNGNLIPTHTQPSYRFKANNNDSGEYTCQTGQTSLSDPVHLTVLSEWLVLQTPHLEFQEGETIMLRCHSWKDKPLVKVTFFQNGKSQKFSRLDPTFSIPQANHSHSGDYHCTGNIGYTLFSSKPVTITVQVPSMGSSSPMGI

FcγRI (human), sequence (P12314 16-288 limits assumed): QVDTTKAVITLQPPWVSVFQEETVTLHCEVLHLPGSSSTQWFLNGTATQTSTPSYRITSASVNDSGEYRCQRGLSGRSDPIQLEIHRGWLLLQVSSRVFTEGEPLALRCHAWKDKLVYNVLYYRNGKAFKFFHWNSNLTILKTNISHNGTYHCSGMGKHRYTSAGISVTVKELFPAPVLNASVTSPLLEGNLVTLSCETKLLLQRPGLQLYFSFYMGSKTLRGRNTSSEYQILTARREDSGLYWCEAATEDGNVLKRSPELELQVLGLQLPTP
FcγRIIIA-V158 (human), sequence (P08637 17-208 F176V limits assumed): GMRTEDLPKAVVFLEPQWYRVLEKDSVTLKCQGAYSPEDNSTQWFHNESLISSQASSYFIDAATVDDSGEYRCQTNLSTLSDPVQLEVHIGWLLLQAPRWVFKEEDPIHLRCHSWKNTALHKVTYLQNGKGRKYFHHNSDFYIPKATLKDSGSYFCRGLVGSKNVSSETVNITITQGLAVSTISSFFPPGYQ
IgG4 SPLE (antibody of Tables 1a and 1b, specificity not named), sequence (Fc): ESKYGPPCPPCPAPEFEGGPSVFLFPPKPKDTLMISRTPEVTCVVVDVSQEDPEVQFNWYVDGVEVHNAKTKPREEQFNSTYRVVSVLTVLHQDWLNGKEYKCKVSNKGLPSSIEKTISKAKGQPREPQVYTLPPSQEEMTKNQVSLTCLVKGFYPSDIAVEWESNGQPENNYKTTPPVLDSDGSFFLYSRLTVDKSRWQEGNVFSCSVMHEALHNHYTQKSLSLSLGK

For “IgG1 P329A ge (antibody of Table 1a, specificity not named)”, the Kd (FcγRI (human)) was 8 nM, the Kd (FcγRIIIA-V158 (human)) was 1800 nM and the Kd (FcγRIIA-R131 (human)) was 4400 nM.
“IgG1 P329G (antibody of Tables 1a and 1b, specificity not named)” showed a Kd (FcγRI (human)) of 6 nM.
With “IgG1 P329G ge (antibody of Table 1a, specificity not named)” the Kd (FcγRI (human)) was 10 nM.
“IgG4 SPLE (antibody of Tables 1a and 1b, specificity not named)” was tested, and the Kd (FcγRIIA-R131 (human)) was 10000 nM.
Substance anti-CD20 antibody IgG1 P329G has a Kd (FcγRI (human)) of 5.7 nM.
